From article PMC12774752, “4E-BP1 differentially regulates translation of a subset of human mRNAs” (The Journal of Biological Chemistry, 2025)
No end group written: not given here. *: point of attachment. FITC = O=C1OC2(c3ccc(O)cc3Oc3cc(O)ccc32)c2ccc(NC(=S)*)cc21

B1: m7G p53B 5'UTR (structured_RNA)
RNA: AUGGAGGAGCCGCAGUCAGAUCCUAGCGUCGAGCCCCCUCUGAGUCAGGAAACAUUUUCAGACCUAUGGAAACUACUUCCUGAAAACAACGUUCUGUCCCCCUUGCCGUCCCAAGCA
modifications: 5' m7G cap
B2: ApppG p53B 5'UTR (structured_RNA)
RNA: B1 RNA
modifications: 5' ApppG cap (non-functional)
B3: m7G FGF-9 5'UTR (structured_RNA)
RNA: GAAACAGCAGAUUACUUUUAUUUAUGCAUUUAAUGGAUUGAAGAAAAGAACCUUUUUUUUUCUCUCUCUCUCUGCAACUGCAGUAAGGGAGGGGAGUUGGAUAUACCUCGCCUAAUAUCUCCUGGGUUGACACCAUCAUUAUUGUUUAUUCUUGUGCUCCAAAAGCCGAGUCCUCUG
modifications: 5' m7G cap
B4: ApppG FGF-9 5'UTR (structured_RNA)
RNA: B3 RNA
modifications: 5' ApppG cap (non-functional)
B5: m7G HIF-1alpha 5'UTR (structured_RNA)
RNA: AGUGCACAGUGCUGCCUCGUCUGAGGGGACAGGAGGAUCACCCUCUUCGUCGCUUCGGCCAGUGGUCGGGCUGGGCCCUGACAAGCCACCUGAGGAGAGGCUCGGAGCCGGGCCCGGACCCCGGCGAUUGCCGCCCGCUUCUCUCUAGUCUCACGAGGGGUUUCCCGCCUCGCACCCCCACCUCUGGACUUGCCUUUCCUUCUCUUCUCCGCGUGUGGAGGGAGCCAGCGCUUAGGCCGGAGCGAGCCUGGGGGCCGCCCGCCGUGAAGACAUCGCGGGGACCGAUUCACC
modifications: 5' m7G cap
B6: ApppG HIF-1alpha 5'UTR (structured_RNA)
RNA: B5 RNA
modifications: 5' ApppG cap (non-functional)
B7: ApppG p53A 5'UTR (structured_RNA)
RNA: UCUAGAGCCACCGUCCAGGGAGCAGGUAGCUGCUGGGCUCCGGGGACACUUUGCGUUCGGGCUGGGAGCGUGCUUUCCACGACGGUGACACGCUUCCCUGGAUUGGCAGCCAGACUGCCUUCCGGGUCACUGCC
modifications: 5' ApppG cap (non-functional)
B8: m7G beta-actin 5'UTR (structured_RNA)
RNA: GGACCGCCGAGACCGCGUCCGCCCCGCGAGCACAGAGCCUCGCCUUUGCCGAUCCGCCGCCCGCCACACCCGCCGCCAGCUCAC
modifications: 5' m7G cap
B9: m7G p53A 5'UTR (structured_RNA)
RNA: B7 RNA
modifications: 5' m7G cap
B10: fluorescein-labeled 4E-BP1 peptide (peptide)
peptide: PGGTRIIYDRK(FITC)FLMECRNSP
notes: also called FITC-4E-BP1 peptide; 4E-BP1-FITC-Peptide; source: synthetic peptide, bought: GenScript (>=98% purity)

target: T1, eIF4GI557-1599 (human, UniProt Q04637 557-1599); assay: fluorescence anisotropy; 20 mM HEPES-KOH pH 7.5, 200 mM KCl, 1 mM MgCl2, 25 °C; 10 nM labeled mRNA; pre-assembly with 0.5 uM eIF4E and 1 uM 4E-BP1; details: protein: recombinant; tags: N-terminal 6xHis, TEV-cleaved; label: 3' fluorescein; structured 5'UTR
T1 sequence (Q04637 557-1599): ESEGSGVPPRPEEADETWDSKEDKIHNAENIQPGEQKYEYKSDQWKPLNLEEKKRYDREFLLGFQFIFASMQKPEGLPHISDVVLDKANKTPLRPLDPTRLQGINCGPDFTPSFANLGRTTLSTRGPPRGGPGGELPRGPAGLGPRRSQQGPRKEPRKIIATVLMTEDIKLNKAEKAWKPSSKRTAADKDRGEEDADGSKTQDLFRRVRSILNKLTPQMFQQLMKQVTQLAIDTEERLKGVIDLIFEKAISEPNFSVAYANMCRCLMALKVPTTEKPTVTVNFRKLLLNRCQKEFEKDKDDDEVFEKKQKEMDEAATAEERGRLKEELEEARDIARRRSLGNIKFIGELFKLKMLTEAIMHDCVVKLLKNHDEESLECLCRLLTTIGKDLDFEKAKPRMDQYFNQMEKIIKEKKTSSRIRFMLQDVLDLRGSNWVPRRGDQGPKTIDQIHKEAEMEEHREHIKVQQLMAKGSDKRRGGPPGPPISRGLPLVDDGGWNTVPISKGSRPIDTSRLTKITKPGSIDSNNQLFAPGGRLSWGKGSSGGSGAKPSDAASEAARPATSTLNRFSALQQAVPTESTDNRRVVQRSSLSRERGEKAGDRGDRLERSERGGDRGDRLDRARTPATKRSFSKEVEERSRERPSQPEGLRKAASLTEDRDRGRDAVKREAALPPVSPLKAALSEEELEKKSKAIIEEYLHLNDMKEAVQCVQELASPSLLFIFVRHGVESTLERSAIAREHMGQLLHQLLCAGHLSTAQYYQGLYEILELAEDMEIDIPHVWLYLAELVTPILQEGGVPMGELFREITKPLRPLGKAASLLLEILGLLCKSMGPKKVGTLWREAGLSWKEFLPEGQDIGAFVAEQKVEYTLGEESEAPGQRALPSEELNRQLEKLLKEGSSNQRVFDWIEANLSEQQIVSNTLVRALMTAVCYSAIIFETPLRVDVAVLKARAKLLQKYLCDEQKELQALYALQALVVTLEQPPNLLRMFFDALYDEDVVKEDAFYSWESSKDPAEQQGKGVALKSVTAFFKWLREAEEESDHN

Row | Binder | Kd [nM]
1 | B1 | 18 ± 3.1
2 | B2 | 66 ± 1.7
3 | B3 | 20 ± 2
4 | B4 | 28 ± 0.7
5 | B5 | 22 ± 0.5
6 | B6 | 67 ± 1.8
7 | B7 | 81 ± 1.3

same assay, conditions: protein: recombinant; tags: N-terminal 6xHis, TEV-cleaved; label: 3' fluorescein; unstructured control

Row | Binder | binding result
8 | B8 | no binding

target: eIF4E;4E-BP1 (human;human, UniProt P06730;Q13541 1-217;1-118, |); assay: as above; details: protein: recombinant;recombinant, tags: N-terminal polyHis, TEV-cleaved;N-terminal 6xHis, copies: 1;1, label: 3' fluorescein, structured 5'UTR
Sequence (P06730 whole entry, chain 1 of 2): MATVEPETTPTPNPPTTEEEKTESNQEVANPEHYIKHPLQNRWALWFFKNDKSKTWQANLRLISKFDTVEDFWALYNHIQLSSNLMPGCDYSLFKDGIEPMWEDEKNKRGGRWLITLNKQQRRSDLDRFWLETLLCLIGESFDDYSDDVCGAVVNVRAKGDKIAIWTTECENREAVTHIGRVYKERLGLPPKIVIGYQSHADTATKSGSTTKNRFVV
Sequence (Q13541 whole entry, chain 2 of 2): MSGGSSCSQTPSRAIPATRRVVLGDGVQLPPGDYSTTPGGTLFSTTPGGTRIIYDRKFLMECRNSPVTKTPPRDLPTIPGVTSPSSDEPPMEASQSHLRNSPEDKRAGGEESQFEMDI

Row | Binder | Kd [nM]
9 | B1 | 28 ± 2.3
10 | B2 | 89 ± 3.5
11 | B3 | 32 ± 3.9
12 | B4 | 87 ± 2
13 | B5 | 15 ± 3.4
14 | B6 | 52 ± 0.5
15 | B9 | 13 ± 1.1
16 | B7 | 45 ± 1.6

same assay, conditions: protein: recombinant;recombinant, tags: N-terminal polyHis, TEV-cleaved;N-terminal 6xHis, copies: 1;1, label: 3' fluorescein, unstructured control

Row | Binder | Kd [nM]
17 | B8 | 12 ± 0.6

target: eIF4E (human, UniProt P06730 1-217); assay: as above; details: protein: recombinant; tags: N-terminal polyHis, TEV-cleaved; label: 3' fluorescein; structured 5'UTR
Sequence (P06730 whole entry): as the sequence (P06730 whole entry, chain 1 of 2) above

Row | Binder | Kd [nM]
18 | B1 | 54 ± 2.3
19 | B2 | 159 ± 4.2
20 | B3 | 72 ± 1.6
21 | B4 | 138 ± 4.6
22 | B5 | 56 ± 1.5
23 | B6 | 199 ± 1.5
24 | B9 | 59 ± 7.5
25 | B7 | 186 ± 0.8

same assay, conditions: protein: recombinant; tags: N-terminal polyHis, TEV-cleaved; label: 3' fluorescein; unstructured control

Row | Binder | Kd [nM]
26 | B8 | 28 ± 1.8

target: 4E-BP1 (human, UniProt Q13541 1-118); assay: as above; details: protein: recombinant; tags: N-terminal 6xHis, TEV-cleaved; label: 3' fluorescein; structured 5'UTR
Sequence (Q13541 whole entry): as the sequence (Q13541 whole entry, chain 2 of 2) above

Row | Binder | binding result
27 | B1 | no binding
28 | B2 | no binding
29 | B3 | no binding
30 | B4 | no binding
31 | B5 | no binding
32 | B6 | no binding
33 | B9 | no binding
34 | B7 | no binding

same assay, conditions: protein: recombinant; tags: N-terminal 6xHis, TEV-cleaved; label: 3' fluorescein; unstructured control

Row | Binder | binding result
35 | B8 | no binding

target: T1, eIF4GI557-1599; assay: fluorescence anisotropy; text gives error 3.1; 20 mM HEPES-KOH pH 7.5, 200 mM KCl, 1 mM MgCl2, 25 °C; 10 nM labeled mRNA; pre-assembly with 0.5 uM eIF4E and 1 uM 4E-BP1; details: protein: recombinant; tags: N-terminal 6xHis, TEV-cleaved; label: 3' fluorescein; structured 5'UTR

Row | Binder | Kd [nM]
36 | B9 | 44 ± 1

target: T2, eIF4GI557-1599;eIF4A (human;human?, UniProt Q04637;P60842 557-1599;1-406, |); assay: fluorescence anisotropy; mRNA pre-bound by eIF4E•4E-BP1; 20 mM HEPES-KOH pH 7.5, 200 mM KCl, 1 mM MgCl2, 25 °C; 10 nM labeled mRNA; pre-assembly with 0.5 uM eIF4E and 1 uM 4E-BP1; details: protein: recombinant;recombinant, tags: N-terminal 6xHis, TEV-cleaved;N-terminal His-MBP, copies: 1;1, label: 3' fluorescein, structured 5'UTR
T2 sequence (Q04637 557-1599, chain 1 of 2): as the sequence (Q04637 557-1599) above
T2 sequence (P60842 whole entry, chain 2 of 2): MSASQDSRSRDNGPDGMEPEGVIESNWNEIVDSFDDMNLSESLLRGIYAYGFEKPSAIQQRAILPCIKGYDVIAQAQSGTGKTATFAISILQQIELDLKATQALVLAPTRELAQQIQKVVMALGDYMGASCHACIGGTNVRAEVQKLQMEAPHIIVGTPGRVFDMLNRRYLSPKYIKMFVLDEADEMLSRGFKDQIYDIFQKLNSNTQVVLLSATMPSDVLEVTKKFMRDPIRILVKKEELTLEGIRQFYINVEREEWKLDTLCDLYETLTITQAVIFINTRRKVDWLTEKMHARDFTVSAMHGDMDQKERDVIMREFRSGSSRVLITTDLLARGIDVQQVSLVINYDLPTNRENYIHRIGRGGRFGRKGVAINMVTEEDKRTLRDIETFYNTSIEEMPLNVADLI

Row | Binder | Kd [nM]
37 | B1 | 21 ± 2.2
38 | B2 | 28 ± 1.8
39 | B3 | 23 ± 1.3
40 | B5 | 20 ± 1.3
41 | B6 | 19 ± 0.6
42 | B9 | 33 ± 0.7
43 | B7 | 20 ± 2

same assay, conditions: protein: recombinant;recombinant, tags: N-terminal 6xHis, TEV-cleaved;N-terminal His-MBP, copies: 1;1, label: 3' fluorescein, unstructured control

Row | Binder | binding result
44 | B8 | no binding

target: T1, eIF4GI557-1599; assay: as above; details: protein: recombinant; tags: N-terminal 6xHis, TEV-cleaved; label: 3' fluorescein; structured 5'UTR

Row | Binder | Kd [nM]
45 | B1 | 18 ± 0.3
46 | B2 | 22 ± 0.8
47 | B3 | 24 ± 0.9
48 | B4 | 13 ± 0.6
49 | B5 | 15 ± 3.4
50 | B6 | 25 ± 1.8
51 | B9 | 31 ± 5.9
52 | B7 | 25 ± 1.1

target: T2, eIF4GI557-1599;eIF4A; assay: fluorescence anisotropy; ATP; mRNA pre-bound by eIF4E•4E-BP1; 20 mM HEPES-KOH pH 7.5, 200 mM KCl, 1 mM MgCl2, 25 °C; 10 nM labeled mRNA; pre-assembly with 0.5 uM eIF4E and 1 uM 4E-BP1; details: protein: recombinant;recombinant, tags: N-terminal 6xHis, TEV-cleaved;N-terminal His-MBP, copies: 1;1, label: 3' fluorescein, structured 5'UTR

Row | Binder | Kd [nM]
53 | B1 | 22 ± 1.1
54 | B2 | 21 ± 1.1
55 | B3 | 24 ± 1.5
56 | B4 | 18 ± 1
57 | B6 | 24 ± 4.3
58 | B9 | 35 ± 1.3
59 | B7 | 16 ± 0.8

target: T2, eIF4GI557-1599;eIF4A; assay: fluorescence anisotropy; mRNA pre-bound by eIF4E•4E-BP1; text gives error 1.0; 20 mM HEPES-KOH pH 7.5, 200 mM KCl, 1 mM MgCl2, 25 °C; 10 nM labeled mRNA; pre-assembly with 0.5 uM eIF4E and 1 uM 4E-BP1; details: protein: recombinant;recombinant, tags: N-terminal 6xHis, TEV-cleaved;N-terminal His-MBP, copies: 1;1, label: 3' fluorescein, structured 5'UTR

Row | Binder | Kd [nM]
60 | B4 | 15 ± 0.3

target: T2, eIF4GI557-1599;eIF4A; assay: fluorescence anisotropy; ATP; mRNA pre-bound by eIF4E•4E-BP1; text gives error 1.5; 20 mM HEPES-KOH pH 7.5, 200 mM KCl, 1 mM MgCl2, 25 °C; 10 nM labeled mRNA; pre-assembly with 0.5 uM eIF4E and 1 uM 4E-BP1; details: protein: recombinant;recombinant, tags: N-terminal 6xHis, TEV-cleaved;N-terminal His-MBP, copies: 1;1, label: 3' fluorescein, structured 5'UTR

Row | Binder | Kd [nM]
61 | B5 | 21 ± 0.5

target: T1, eIF4GI557-1599; assay: fluorescence anisotropy; mRNA pre-bound by eIF4E•FITC-4E-BP1 peptide (label on peptide); 20 mM HEPES-KOH pH 7.5, 200 mM KCl, 1 mM MgCl2, 25 °C; 10 nM labeled mRNA; pre-assembly with 0.5 uM eIF4E and 1 uM 4E-BP1; details: protein: recombinant; tags: N-terminal 6xHis, TEV-cleaved; label: 3' fluorescein; structured 5'UTR

Row | Binder | Kd [nM]
62 | B1 | 47 ± 0.7
63 | B3 | 32 ± 0.3
64 | B4 | 25 ± 1
65 | B5 | 21 ± 0.7
66 | B6 | 30 ± 3.1
67 | B9 | 29 ± 1.3

target: T1, eIF4GI557-1599; assay: fluorescence anisotropy; mRNA pre-bound by eIF4E•FITC-4E-BP1 peptide (label on peptide); text gives error 0.7; 20 mM HEPES-KOH pH 7.5, 200 mM KCl, 1 mM MgCl2, 25 °C; 10 nM labeled mRNA; pre-assembly with 0.5 uM eIF4E and 1 uM 4E-BP1; details: protein: recombinant; tags: N-terminal 6xHis, TEV-cleaved; label: 3' fluorescein; structured 5'UTR

Row | Binder | Kd [nM]
68 | B2 | 42 ± 2

target: T1, eIF4GI557-1599; assay: fluorescence anisotropy; mRNA pre-bound by eIF4E•FITC-4E-BP1 peptide (label on peptide); text gives error 1.5; 20 mM HEPES-KOH pH 7.5, 200 mM KCl, 1 mM MgCl2, 25 °C; 10 nM labeled mRNA; pre-assembly with 0.5 uM eIF4E and 1 uM 4E-BP1; details: protein: recombinant; tags: N-terminal 6xHis, TEV-cleaved; label: 3' fluorescein; structured 5'UTR

Row | Binder | Kd [nM]
69 | B7 | 35 ± 0.5

target: eukaryotic initiation factor 4E (eIF4E) (human, UniProt P06730 1-217); assay: fluorescence polarisation; fluorescence anisotropy; 20 nM FITC-labelled 4E-BP1 peptide, free or preincubated with 10 nM eIF4E for 20 min at 25 °C, titrated with protein (eIF4E: 200 ul of 20 nM peptide with 2.5 uM eIF4E); no mRNA; Hill-equation fit; details: both partners purified
Sequence (P06730 whole entry): as the sequence (P06730 whole entry, chain 1 of 2) above

Row | Kd [nM] | Binder
70 | 5 ± 3.7 | B10
